Residue numbers refer to the chain shown, from its start.
B1: antibody C10P8 (antibody, V domains shown)
VH: QVQLQESGPGLVKPSQTLSLTCTVSGGSISSGRYYWSWIRQPAGKGLEWIGRVYFSGSTNYNPSLKNRVTLSVDTSKNQFSLKLSSVIAADTAVYYCARAVRDYGDSYSFDYWGQGTLVTVSS
VL: QSALTQPASVSGSPGQSITISCTGSSSDIGGYNYVSWYQVHPGKAPHLKIYDVVNRPSGVSNRFPGSKSGNTASLTISGLLADDEAYYYCCSYSIRGTPVFGGGTKLTVL
B2: antibody G7P3 (antibody, V domains shown)
VH: EVQLVESGGGLVQPGGSLRLSCAASGFSFGSYSMNWVRQAPGKGLEWVSHISSGSSSIYYADSVKGRFTISRDSVKNSLYLQMNNLRAEDTAVYYCARGWTGYDAFDIWGQGTMVTVSS
VL: DIQMTQSPSSLSASVGDRVTITCRASQVISNYLAWYQEKPGKVPKLLIYAASTLQSGVPSRFSGSGTGTDFTLTIRSLQPEDVATYYCQKYNNAPLTFGGGTKVEIK
B3: antibody E8P5 (antibody, V domains shown)
VH: B2 VH with Q13H, S28R, S31T, Y95F
VL: B2 VL with K42E, R76S
B4: antibody C4P7 (antibody, V domains shown)
VH: EVQLLESGGGLVQPGGSLRLSCAASGFTFSSYAMSWVRQAPGKGLEWVSSLTGSGGSTYYRDSVKGRFTIFRDNSKKTLYMQMNSLRAEDTAVYYCAKEGAYSYDFWYFDLWGRGTLVTVSS
VL: EIVLTQSPGTLSLSPGERATLSCRASQTVSGNYLAWYQQKPGQSPSLLIYGASSRATGIPDRFTGSGSGTDFTLTISRLEPADFAVYYCQQYGRPLTFGGGTKVEIK
B5: antibody B7P3 (antibody, V domains shown)
VH: EVQLVESGGGVVQPGRSLRLSCAASGFTFSNFGMHWVRQPPGKGLEWVAVISYDGSDKFYADSVKGRFTISRDNFKNTLYVQMNSLRAEDTAVYYCAKDRVRTKYYYDHSGPFDYWGRGTLVTVSS
VL: SYVLTQPPSVSVAPGQTARIACGGNNIGSKSVHWYQQRPGQAPVLVVYDDDDRPSGIPERFSGSNSGNTATLTISRVEAGDEADYFCQVWMTNSDRPVFGGGTKLTVL
B6: antibody E10P5 (antibody, V domains shown)
VH: QVQLQESGPGLVKPSQTLSLTCSVSGGSISSGNYYWSWIRQPAGKGLEWIGRIYTSGNTNYNPSLKSRVTMSVDTSKNQFSLKLSSVTATDTAVYYCARVRRDGYNAFDYWGQGTLVTVSS
VL: SYELTQPPSVSVSPGQTASIDCSGHNLGDKFTCWYQQKPGQSPVLVIYQDSKRPSGIPERFSGSNSGNTATLTISGTQAMDEADYYCQAWDSDTLYVFGTGTTVTVL

These binders were tested against VP1 pentamer of BKV genotype IV (recombinant) (BK virus genotype IV), P14996 (assay: ELISA, coated VP1 pentamer). Details: remark: other sources report otherwise.

Binder B1 has an EC50 of 10 µg/mL.

Each binder was assayed against VP1 pentamer of BKV genotype II (recombinant) (BK virus genotype II), P14996 (assay: ELISA, coated VP1 pentamer). Details: remark: other sources report otherwise.

Compared with B2, B3 is 2-fold higher in EC50: 0.04 µg/mL for the first, 0.08 µg/mL for the second.

B4 and B5 are within 1.5-fold of each other in EC50: 5 µg/mL for the first, 5.5 µg/mL for the second.

In the case of B6, the EC50 is reported as 0.065 µg/mL.

— EP4659811A1
